T1: Scrambled 3pE-28 (human)
T1 construct: also called scrambled Aβ 3pE-28; Aβ 3pE-28 peptide with amino acids 3-9 scrambled
T1 peptide: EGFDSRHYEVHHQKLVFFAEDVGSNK

T2: mouse Aβ 3pE-28 peptide (mouse, pyroglutamate (pE) at the N-terminus, residue 3 of Aβ)
T2 construct: also called rodent Aβ3pE-28
T2 peptide: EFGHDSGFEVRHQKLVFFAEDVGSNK


Tests used:
HU-3pE-beta-Amyloid [1] = target: T3, HU-3pE-beta-Amyloid (human); assay: SPR (per Example 5); antigen peptide not given
T3 construct: also called the peptide
Target sequence in this assay (P05067 674-699): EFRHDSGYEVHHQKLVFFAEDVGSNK

human Aβ 3pE-28 peptide [2] = target: T4, human Aβ 3pE-28 peptide (human, pyroglutamate (pE) at the N-terminus, residue 3 of Aβ); assay: SPR; same value as in Table 5
HU-3pE-beta-Amyloid [3] = target: T3, HU-3pE-beta-Amyloid; assay: SPR; HU-3pE-beta-Amyloid 0.6 to 4.5 nM
human Aβ 1-28 peptide [4] = target: human Aβ 1-28 peptide (human); assay: SPR; no binding up to the maximum 1.2 µM tested
Scrambled 3pE-28 [5] = target: T1, Scrambled 3pE-28; assay: SPR; no binding up to the maximum 1.2 µM tested
human Aβ 1-28 peptide [6] = target: human Aβ 1-28 peptide (human); assay: SPR; KD limit divided by the KD for human 3pE Aβ
Scrambled 3pE-28 [7] = target: T1, Scrambled 3pE-28; assay: SPR; KD limit divided by the KD for human 3pE Aβ
mouse Aβ 3pE-28 peptide [8] = target: T2, mouse Aβ 3pE-28 peptide; assay: SPR, antibody captured, peptide injected, 1:1 fit
mouse Aβ 3pE-28 peptide [9] = target: T2, mouse Aβ 3pE-28 peptide; assay: SPR; KD for this peptide divided by the KD for human 3pE Aβ
human FcRn [10] = target: T5, human FcRn (human, UniProt P55899 24-297; P61769 21-119); assay: FcRn binding affinity; method not described; average of 5-6 replicates
T5 construct: the construct is not described; also called FcRn (human)

cynomolgus FcRn [11] = target: T6, cynomolgus FcRn (cynomolgus, UniProt Q8SPV9 24-297; Q8SPW0 21-119); assay: as above
T6 construct: the construct is not described; also called FcRn (cyno)

human Aβ 3pE-28 peptide [12] = target: T4, human Aβ 3pE-28 peptide; assay: SPR, antibody captured on anti-human or anti-mouse Ig chip, peptide injected, 1:1 fit; N=9
human FcRn [13] = target: T5, human FcRn; assay: FcRn binding affinity; method not described
cynomolgus FcRn [14] = target: T6, cynomolgus FcRn; assay: FcRn binding affinity; method not described

T6 sequence (Q8SPV9 24-297 limits assumed, chain 1 of 2): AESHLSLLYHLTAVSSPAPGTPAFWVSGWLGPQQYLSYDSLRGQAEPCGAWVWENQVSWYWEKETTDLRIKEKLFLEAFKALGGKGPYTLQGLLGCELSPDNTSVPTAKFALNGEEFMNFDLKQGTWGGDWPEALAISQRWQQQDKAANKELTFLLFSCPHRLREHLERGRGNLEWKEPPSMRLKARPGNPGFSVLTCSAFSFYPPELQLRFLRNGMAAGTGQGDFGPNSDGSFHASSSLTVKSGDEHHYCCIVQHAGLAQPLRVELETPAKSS
T6 sequence (Q8SPW0 21-119 limits assumed, chain 2 of 2): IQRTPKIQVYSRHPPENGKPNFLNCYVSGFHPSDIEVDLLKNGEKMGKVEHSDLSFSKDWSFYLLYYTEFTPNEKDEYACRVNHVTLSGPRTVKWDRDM
Sequence of human Aβ 1-28 peptide (human) (peptide, as listed by the source): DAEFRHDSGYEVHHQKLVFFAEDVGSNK

Kd (HU-3pE-beta-Amyloid [1]) | Kd (human Aβ 3pE-28 peptide [2]) | Kd (HU-3pE-beta-Amyloid [3]) | koff (HU-3pE-beta-Amyloid [3]) | kon (HU-3pE-beta-Amyloid [3]) | Kd (human Aβ 1-28 peptide [4]) | Kd (Scrambled 3pE-28 [5]) | Fold Selectivity (human Aβ 1-28 peptide [6]) | Fold Selectivity (Scrambled 3pE-28 [7]) | Kd (mouse Aβ 3pE-28 peptide [8]) | koff (mouse Aβ 3pE-28 peptide [8]) | kon (mouse Aβ 3pE-28 peptide [8]) | Fold Selectivity (mouse Aβ 3pE-28 peptide [9]) | Kd (human FcRn [10]) | Kd (cynomolgus FcRn [11]) | Kd (human Aβ 3pE-28 peptide [12]) | koff (human Aβ 3pE-28 peptide [12]) | kon (human Aβ 3pE-28 peptide [12]) | fold higher affinity compared with wt IgG1 (BAMB674) (human FcRn [13]) | fold higher affinity compared with wt IgG1 (BAMB674) (cynomolgus FcRn [14]) | Binder
0.0182 nM |  |  |  |  |  |  |  |  |  |  |  |  |  |  |  |  |  |  |  | BAMB613 (antibody, human IgG1, kappa, V domains shown, HFA variant of BAMB31, human IgG1) VH: QVQLVQSGAEVKKPGASVKVSCKASGHVFTSYDMYWVRQAPGQGLEWIGYIDSDNGDTSYNQKFKGKVTLTVDTSTSTVYMELSSLRSEDTAVYYCAYYRYAMDYWGQGTLVTVSS VL: DVVMTQSPLSLPVTLGQPASISCKSSQSLLDSRAKTYLTWLQQRPGQSPRRLIYLVSKLDSGVPDRFSGSGSGTDFTLKISRVEAEDVGVYYCWQGTHFPYTFGGGTKLEIKR
0.018 nM |  |  |  |  |  |  |  |  |  |  |  |  |  |  |  |  |  |  |  | BAMB631 (antibody, human IgG1, kappa, V domains shown, HFA variant of BAMB31, human IgG1) VH: QVQLVQSGAEVKKPGASVKVSCKASGHVFTSYDMYWVRQAPGQSLEWMGYIDSDNGDTSYNQKFKGRVTLTVDTSTSTVYMELSSLRSEDTAVYYCAYYRYAMDYWGQGTLVTVSS VL: DVVMTQSPLSLPVTLGQPASISCKSSQSLLDSRAKTYLTWLLQRPGQSPRRLIYLVSKLDSGVPDRFSGSGSGTDFTLKISRVEAEDVGVYYCWQGTHFPYTFGGGTKLEIKR
 | 0.0254 nM | 0.0401 nM | 0.000136 s⁻¹ | 3.39e+06 M⁻¹ s⁻¹ | > 1200 nM | > 1200 nM | > 47000 fold | > 47000 fold | 45.5 nM | 0.000338 s⁻¹ | 7400 M⁻¹ s⁻¹ | 1790 fold | 349 nM | 268 nM | 0.0254 nM | 8.32e-05 s⁻¹ | 3.27e+06 M⁻¹ s⁻¹ |  |  | BAMB674 (antibody, human IgG1, kappa, Lead HFA variant, wild type human IgG1, HCDR2 N55S; also called BAMAB674; BAMB31 HFA mAb, wild type IgG1) heavy: not shown light: DVVMTQSPLSLPVTLGQPASISCKSSQSLLDSRAKTYLTWLQQRPGQSPRRLIYLVSKLDSGVPDRFSGSGSGTDFTLKISRVEAEDVGVYYCWQGTHFPYTFGGGTKLEIKRTVAAPSVFIFPPSDEQLKSGTASVVCLLNNFYPREAKVQWKVDNALQSGNSQESVTEQDSKDSTYSLSSTLTLSKADYEKHKVYACEVTHQGLSSPVTKSFNRGEC
 |  | 0.0314 nM | 9.47e-05 s⁻¹ | 3.01e+06 M⁻¹ s⁻¹ |  |  |  |  |  |  |  |  |  |  |  |  |  |  |  | BAMB701 (antibody, human IgG1, kappa) heavy: QVQLVQSGAEVKKPGASVKVSCKASGHVFTSYDMYWVRQAPGQGLEWIGYIDSDSGDTSYNQKFKGRVTLTVDTSTSTVYMELSSLRSEDTAVYYCAYYRYAMDYWGQGTLVTVSSASTKGPSVFPLAPSSKSTSGGTAALGCLVKDYFPEPVTVSWNSGALTSGVHTFPAVLQSSGLYSLSSVVTVPSSSLGTQTYICNVNHKPSNTKVDKKVEPKSCDKTHTCPPCPAPELLGGPSVFLFPPKPKDTLYITREPEVTCVVVDVSHEDPEVKFNWYVDGVEVHNAKTKPREEQYNSTYRVVSVLTVLHQDWLNGKEYKCKVSNKALPAPIEKTISKAKGQPREPQVYTLPPSREEMTKNQVSLTCLVKGFYPSDIAVEWESNGQPENNYKTTPPVLDSDGSFFLYSKLTVDKSRWQQGNVFSCSVMHEALHNHYTQKSLSLSPGK light: DVVMTQSPLSLPVTLGQPASISCKSSQSLLDSRAKTYLTWLQQRPGQSPRRLIYLVSKLDSGVPDRFSGSGSGTDFTLKISRVEAEDVGVYYCWQGTHFPYTFGGGTKVEIKRTVAAPSVFIFPPSDEQLKSGTASVVCLLNNFYPREAKVQWKVDNALQSGNSQESVTEQDSKDSTYSLSSTLTLSKADYEKHKVYACEVTHQGLSSPVTKSFNRGEC
 |  | 0.0342 nM | 9.86e-05 s⁻¹ | 2.88e+06 M⁻¹ s⁻¹ |  |  |  |  |  |  |  |  |  |  |  |  |  |  |  | BAMB700 (antibody, human IgG1, kappa) heavy: not shown light: DVVMTQSPLSLPVTLGQPASISCKSSQSLLDSRAKTYLTWLQQRPGQSPRRLIYLVSKLDSGVPDRFSGSGSGTDFTLKISRVEAEDVGVYYCWQGTHFPYTFGQGTKLEIKRTVAAPSVFIFPPSDEQLKSGTASVVCLLNNFYPREAKVQWKVDNALQSGNSQESVTEQDSKDSTYSLSSTLTLSKADYEKHKVYACEVTHQGLSSPVTKSFNRGEC
 | 0.0257 nM | 0.0443 nM | 0.000166 s⁻¹ | 3.74e+06 M⁻¹ s⁻¹ | > 1200 nM | > 1200 nM | > 46000 fold | > 46000 fold | 77.5 nM | 0.000333 s⁻¹ | 4680 M⁻¹ s⁻¹ | 3010 fold | 111 nM | 86.4 nM | 0.0257 nM | 8.24e-05 s⁻¹ | 3.24e+06 M⁻¹ s⁻¹ | ~3 fold | ~3 fold | BAMB675 (antibody, human IgG1, kappa, Same V regions as BAMB674; human IgG1 with M37Y, S39T, T41E (YTE) in the Fc (numbering on the constant region, GenBank AEV43323); also called BAMB31 HFA mAb, +YTE IgG1; +YTE mAb) heavy: QVQLVQSGAEVKKPGASVKVSCKASGHVFTSYDMYWVRQAPGQGLEWIGYIDSDSGDTSYNQKFKGRVTLTVDTSTSTVYMELSSLRSEDTAVYYCAYYRYAMDYWGQGTLVTVSSASTKGPSVFPLAPSSKSTSGGTAALGCLVKDYFPEPVTVSWNSGALTSGVHTFPAVLQSSGLYSLSSVVTVPSSSLGTQTYICNVNHKPSNTKVDKKVEPKSCDKTHTCPPCPAPELLGGPSVFLFPPKPKDTLYITREPEVTCVVVDVSHEDPEVKFNWYVDGVEVHNAKTKPREEQYNSTYRVVSVLTVLHQDWLNGKEYKCKVSNKALPAPIEKTISKAKGQPREPQVYTLPPSREEMTKNQVSLTCLVKGFYPSDIAVEWESNGQPENNYKTTPPVLDSDGSFFLYSKLTVDKSRWQQGNVFSCSVMHEALHNHYTQKSLSLSPGK light: DVVMTQSPLSLPVTLGQPASISCKSSQSLLDSRAKTYLTWLQQRPGQSPRRLIYLVSKLDSGVPDRFSGSGSGTDFTLKISRVEAEDVGVYYCWQGTHFPYTFGGGTKLEIKRTVAAPSVFIFPPSDEQLKSGTASVVCLLNNFYPREAKVQWKVDNALQSGNSQESVTEQDSKDSTYSLSSTLTLSKADYEKHKVYACEVTHQGLSSPVTKSFNRGEC
